Experimental data: patent US20260028422A1 (CONCEPT TO MEDICINE BIOTECH, published 2026)

Legend:
human MerTK-his protein [1] = molecular target: T1, human MerTK-his protein (human, UniProt Q12866 21-505); assay: ELISA, plate coated with human MerTK-his, OD 450nm
T1 construct: extracellular domain; also called hMerTK-His; human MerTK protein
T1 sequence (looked up): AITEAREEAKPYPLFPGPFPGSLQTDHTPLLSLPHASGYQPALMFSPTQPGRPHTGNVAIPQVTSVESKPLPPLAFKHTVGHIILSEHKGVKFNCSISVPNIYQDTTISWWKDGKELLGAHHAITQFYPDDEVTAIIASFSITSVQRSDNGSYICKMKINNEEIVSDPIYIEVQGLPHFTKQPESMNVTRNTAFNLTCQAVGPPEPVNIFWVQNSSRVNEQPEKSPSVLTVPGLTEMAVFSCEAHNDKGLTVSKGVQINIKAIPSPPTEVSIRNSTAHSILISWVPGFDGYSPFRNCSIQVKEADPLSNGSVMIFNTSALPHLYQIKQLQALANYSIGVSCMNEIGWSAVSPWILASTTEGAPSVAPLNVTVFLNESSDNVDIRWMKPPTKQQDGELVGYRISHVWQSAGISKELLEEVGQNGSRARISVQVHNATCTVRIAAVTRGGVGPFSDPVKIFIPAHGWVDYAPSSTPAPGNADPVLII
Procedure: To evaluate the binding activity, the chimeric mAbs were subjected to ELISA test. Briefly, 96-well plates were coated with human or cyno MerTK-his protein at 2 μg/mL in PBS, 100 μL/well at 4° C. overnight, then blocked with 150 μL/well of 1% BSA. Five-fold dilutions of MerTK antibodies starting from 20 nM were added to each well and incubated for 1 hour at room temperature. The plates were washed with PBS/Tween-20 and then incubated with goat anti-human IgG Fe antibody conjugated with Horse Radish Peroxidase (HRP) for 30 minutes (mins) at room temperature. After washing, the plates were developed with TMB substrate and subsequent stop solution was added to complete the reaction. The signal from each well was read by spectrophotometer at OD 450 nm.
To evaluate the antigen binding activity, the humanized antibodies were subjected to ELISA test as described before.

[2] = molecular target: T2, human MerTK expressed on cells (human, UniProt Q12866 21-999); assay: FACS on CHO-K1 cells overexpressing human MerTK, MFI (PE)
T2 construct: whole, on cells; also called CHO-K1-hMerTK; CHO-K1-MerTK
T2 sequence (looked up): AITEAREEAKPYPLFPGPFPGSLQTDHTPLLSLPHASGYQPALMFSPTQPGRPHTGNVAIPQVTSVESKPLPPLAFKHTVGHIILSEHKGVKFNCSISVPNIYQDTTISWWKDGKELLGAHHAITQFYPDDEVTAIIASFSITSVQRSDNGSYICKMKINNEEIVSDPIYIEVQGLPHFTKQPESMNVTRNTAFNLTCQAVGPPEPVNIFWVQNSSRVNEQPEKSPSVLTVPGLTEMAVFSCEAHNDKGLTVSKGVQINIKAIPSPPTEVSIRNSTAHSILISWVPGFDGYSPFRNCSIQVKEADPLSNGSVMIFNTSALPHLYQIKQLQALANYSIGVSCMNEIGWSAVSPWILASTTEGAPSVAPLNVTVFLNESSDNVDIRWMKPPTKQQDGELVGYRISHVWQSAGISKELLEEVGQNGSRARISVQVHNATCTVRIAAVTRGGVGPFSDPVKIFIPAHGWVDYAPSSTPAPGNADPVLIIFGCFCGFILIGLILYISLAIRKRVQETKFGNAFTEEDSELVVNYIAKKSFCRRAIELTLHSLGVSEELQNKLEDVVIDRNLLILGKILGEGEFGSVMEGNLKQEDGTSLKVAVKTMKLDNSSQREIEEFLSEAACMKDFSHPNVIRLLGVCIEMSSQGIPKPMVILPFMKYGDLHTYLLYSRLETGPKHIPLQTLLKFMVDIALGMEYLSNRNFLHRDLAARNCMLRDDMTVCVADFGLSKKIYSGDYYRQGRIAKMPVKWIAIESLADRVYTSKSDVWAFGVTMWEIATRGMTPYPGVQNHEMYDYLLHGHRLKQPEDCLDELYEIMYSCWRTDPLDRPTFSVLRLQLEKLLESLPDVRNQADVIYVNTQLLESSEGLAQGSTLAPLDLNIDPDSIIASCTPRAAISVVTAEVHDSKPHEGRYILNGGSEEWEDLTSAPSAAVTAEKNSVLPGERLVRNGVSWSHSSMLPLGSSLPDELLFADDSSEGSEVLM
Procedure: To evaluate the binding property to the antigen expressed on the cells, the chimeric monoclonal antibodies were analyzed for their binding to human MerTK overexpressed on CHO-K1 cells by FACS. Briefly, human MerTK overexpressing CHO-K1 (CHO-K1-MerTK) cells were firstly incubated with 5-fold serially diluted mAbs starting at 20 nM at 4° C. for 1 hour. After washing with FACS buffer, the PE conjugated anti-human IgG-Fc secondary antibody was added to each well and incubated at 4° C., for 30 mins. The mean fluorescence intensity (MFI) of PE were evaluated by QuantAnalyzer 16.
To evaluate the binding property to the antigen expressed on the cells, the humanized antibodies were analyzed by FACS as described before.

human MerTK-his protein [3] = molecular target: T1, human MerTK-his protein; assay: SPR Biacore 8K, antibody captured on Protein A chip, 50 nM antigen
Procedure: To explore whether the humanized antibodies could maintain their binding kinetics, affinity ranking were performed with Biacore™. The antibodies were captured with a Protein A chips. Human MerTK-his protein at 50 nM was injected over captured antibodies for 180 s at a flow rate of 30 μL/min. The antigen was allowed to dissociate for 600 s. The experiment was carried out on a Biacore™ 8K. Data analysis was carried out using Biacore™ 8K evaluation software.

[4] = molecular target: T2, human MerTK expressed on cells; assay: FACS on CHO-K1 cells overexpressing human MerTK, MFI (AF488)

B1: 10F7D9 Hu-2 (antibody, V domains shown)
VH: QIQLVQSGSELKKPGASVKVSCKASGYTFTNYGMNWVRQAPGQGLEWMGWINTYTGEPTYADDFKGRFVFSLDTSVSTAYLQISSLKAEDTAVYYCATYGHYAWFAYWGQGTLVTVSS
VL: EIVLTQSPDFQSVTPKEKVTITCRASSSVSYMHWYQQKPDQSPKLLIKATSNLASGVPSRFSGSGSGTDFTLTINSLEAEDAATYYCQQWGTKPLTFGQGTKLEIK
notes: also called Hu-2 of 10F7D9
EC50 (human MerTK-his protein [1]): 0.035 nM | EC50 [2]: 0.45 nM

B2: 265F11B5Hu-6 (antibody, V domains shown)
VH: QVQLVQSGAEVKKPGASVKVSCKASGYTFTTYDINWVRQAPGQGLEWMGWIYPRDGYTKYNEKFKGRVTMTTDTSTSTAYMELRSLRSDDTAVYYCTRGYYDNLYYFDYWGQGTTVTVSS
VL: EIVLTQSPDFQSVTPKEKVTITCSASSIISSNYFHWYQQKPDQSPKLLIKRTSNLASGVPSRFSGSGSGTDYTLTINSLEAEDAATYYCQQGRSVPLTFGQGTKLEIK
EC50 (human MerTK-his protein [1]): 0.044 nM | Kd (human MerTK-his protein [3]): 1.4 nM | koff (human MerTK-his protein [3]): 0.000278 s⁻¹ | kon (human MerTK-his protein [3]): 199000 M⁻¹ s⁻¹ | EC50 [4]: 0.17 nM

B3: 265F11B5Hu-1 (antibody, V domains shown)
VH: QVQLVQSGAEVKKPGASVKVSCKASGYTFTTYDINWVRQAPGQGLEWMGWIYPRDGYTKYNEKFKGRVTMTTDTSTSTAYMELRSLRSDDTAVYYCARGYYDNLYYFDYWGQGTTVTVSS
VL: EIVLTQSPDFQSVTPKEKVTITCSASSIISSNYFHWYQQKPDQSPKLLIKRTSNLASGVPSRFSGSGSGTDFTLTINSLEAEDAATYYCQQGRSVPLTFGQGTKLEIK
EC50 (human MerTK-his protein [1]): 0.042 nM | Kd (human MerTK-his protein [3]): 1.15 nM | koff (human MerTK-his protein [3]): 0.000232 s⁻¹ | kon (human MerTK-his protein [3]): 201000 M⁻¹ s⁻¹ | EC50 [4]: 0.16 nM

B4: 265F11B5Hu-2 (antibody, V domains shown)
VH: QVQLVQSGAEVKKPGASVKVSCKASGYTFTTYDINWVRQAPGQGLEWMGWIYPRDGYTKYNEKFKGRVTMTTDTSTSTAYMELRSLRSDDTAVYYCTRGYYDNLYYFDYWGQGTTVTVSS
VL: EIVLTQSPDFQSVTPKEKVTITCSASSIISSNYFHWYQQKPDQSPKLLIKRTSNLASGVPSRFSGSGSGTDFTLTINSLEAEDAATYYCQQGRSVPLTFGQGTKLEIK
EC50 (human MerTK-his protein [1]): 0.054 nM | Kd (human MerTK-his protein [3]): 1.27 nM | koff (human MerTK-his protein [3]): 0.00025 s⁻¹ | kon (human MerTK-his protein [3]): 197000 M⁻¹ s⁻¹ | EC50 [4]: 0.14 nM

B5: 265F11B5Hu-3 (antibody, V domains shown)
VH: QVQLVQSGAEVKKPGASVKVSCKASGYTFTTYDINWVRQAPGQGLEWIGWIYPRDGYTKYNEKFKGRATMTTDTSTSTAYMELRSLRSDDTAVYFCTRGYYDNLYYFDYWGQGTTVTVSS
VL: EIVLTQSPDFQSVTPKEKVTITCSASSIISSNYFHWYQQKPDQSPKLLIKRTSNLASGVPSRFSGSGSGTDFTLTINSLEAEDAATYYCQQGRSVPLTFGQGTKLEIK
EC50 (human MerTK-his protein [1]): 0.06 nM | Kd (human MerTK-his protein [3]): 1.02 nM | koff (human MerTK-his protein [3]): 0.000204 s⁻¹ | kon (human MerTK-his protein [3]): 199000 M⁻¹ s⁻¹ | EC50 [4]: 0.22 nM

B6: 265F11B5Hu-4 (antibody, V domains shown)
VH: QVQLVQSGAEVKKPGASVKVSCKASGYTFTTYDINWVRQAPGQGLEWIGWIYPRDGYTKYNEKFKGRATLAVDTSTSTAYMELRSLRSDDTAVYFCTRGYYDNLYYFDYWGQGTTVTVSS
VL: EIVLTQSPDFQSVTPKEKVTITCSASSIISSNYFHWYQQKPDQSPKLLIKRTSNLASGVPSRFSGSGSGTDFTLTINSLEAEDAATYYCQQGRSVPLTFGQGTKLEIK
EC50 (human MerTK-his protein [1]): 0.068 nM | Kd (human MerTK-his protein [3]): 0.856 nM | koff (human MerTK-his protein [3]): 0.000172 s⁻¹ | kon (human MerTK-his protein [3]): 201000 M⁻¹ s⁻¹ | EC50 [4]: 0.13 nM

B7: 265F11B5Hu-5 (antibody, V domains shown)
VH: QVQLVQSGAEVKKPGASVKVSCKASGYTFTTYDINWVRQAPGQGLEWMGWIYPRDGYTKYNEKFKGRVTMTTDTSTSTAYMELRSLRSDDTAVYYCARGYYDNLYYFDYWGQGTTVTVSS
VL: EIVLTQSPDFQSVTPKEKVTITCSASSIISSNYFHWYQQKPDQSPKLLIKRTSNLASGVPSRFSGSGSGTDYTLTINSLEAEDAATYYCQQGRSVPLTFGQGTKLEIK
EC50 (human MerTK-his protein [1]): 0.062 nM | Kd (human MerTK-his protein [3]): 1.16 nM | koff (human MerTK-his protein [3]): 0.000232 s⁻¹ | kon (human MerTK-his protein [3]): 200000 M⁻¹ s⁻¹ | EC50 [4]: 0.17 nM

B8: 265F11B5Hu-7 (antibody, V domains shown)
VH: QVQLVQSGAEVKKPGASVKVSCKASGYTFTTYDINWVRQAPGQGLEWIGWIYPRDGYTKYNEKFKGRATMTTDTSTSTAYMELRSLRSDDTAVYFCTRGYYDNLYYFDYWGQGTTVTVSS
VL: EIVLTQSPDFQSVTPKEKVTITCSASSIISSNYFHWYQQKPDQSPKLLIKRTSNLASGVPSRFSGSGSGTDYTLTINSLEAEDAATYYCQQGRSVPLTFGQGTKLEIK
EC50 (human MerTK-his protein [1]): 0.021 nM | Kd (human MerTK-his protein [3]): 0.719 nM | koff (human MerTK-his protein [3]): 0.000155 s⁻¹ | kon (human MerTK-his protein [3]): 216000 M⁻¹ s⁻¹ | EC50 [4]: 0.14 nM

B9: 265F11B5Hu-8 (antibody, V domains shown)
VH: QVQLVQSGAEVKKPGASVKVSCKASGYTFTTYDINWVRQAPGQGLEWIGWIYPRDGYTKYNEKFKGRATLAVDTSTSTAYMELRSLRSDDTAVYFCTRGYYDNLYYFDYWGQGTTVTVSS
VL: EIVLTQSPDFQSVTPKEKVTITCSASSIISSNYFHWYQQKPDQSPKLLIKRTSNLASGVPSRFSGSGSGTDYTLTINSLEAEDAATYYCQQGRSVPLTFGQGTKLEIK
EC50 (human MerTK-his protein [1]): 0.037 nM | Kd (human MerTK-his protein [3]): 0.174 nM | koff (human MerTK-his protein [3]): 3.95e-05 s⁻¹ | kon (human MerTK-his protein [3]): 227000 M⁻¹ s⁻¹ | EC50 [4]: 0.14 nM

B10: 265F11B5Hu-9 (antibody, V domains shown)
VH: QVQLVQSGAEVKKPGASVKVSCKASGYTFTTYDINWVRQAPGQGLEWMGWIYPRDGYTKYNEKFKGRVTMTTDTSTSTAYMELRSLRSDDTAVYYCARGYYDNLYYFDYWGQGTTVTVSS
VL: EIVLTQSPDFQSVTPKEKVTITCSASSIISSNYFHWYQQKPDQSPKLLIYRTSNLASGVPSRFSGSGSGTDYTLTINSLEAEDAATYYCQQGRSVPLTFGQGTKLEIK
EC50 (human MerTK-his protein [1]): 0.059 nM | Kd (human MerTK-his protein [3]): 2.17 nM | koff (human MerTK-his protein [3]): 0.000443 s⁻¹ | kon (human MerTK-his protein [3]): 204000 M⁻¹ s⁻¹ | EC50 [4]: 0.19 nM

B11: 265F11B5Hu-10 (antibody, V domains shown)
VH: QVQLVQSGAEVKKPGASVKVSCKASGYTFTTYDINWVRQAPGQGLEWMGWIYPRDGYTKYNEKFKGRVTMTTDTSTSTAYMELRSLRSDDTAVYYCTRGYYDNLYYFDYWGQGTTVTVSS
VL: EIVLTQSPDFQSVTPKEKVTITCSASSIISSNYFHWYQQKPDQSPKLLIYRTSNLASGVPSRFSGSGSGTDYTLTINSLEAEDAATYYCQQGRSVPLTFGQGTKLEIK
EC50 (human MerTK-his protein [1]): 0.045 nM | Kd (human MerTK-his protein [3]): 2.52 nM | koff (human MerTK-his protein [3]): 0.000463 s⁻¹ | kon (human MerTK-his protein [3]): 184000 M⁻¹ s⁻¹ | EC50 [4]: 0.19 nM
